This note sets out measurements from patent publication US8361967B2, “Beta sheet inhibiting peptides for preventing and/or treating Alzheimer's Disease” (Tianjin Medical University, priority 2008, dated 2013).

No end group written: not given here.

For data set [1], the target named is T1, Aβ1-42 peptide (Homo sapiens, UniProt P05067). The note with it: for ThT fluorescence intensity over time vs Aβ1-42 alone: 44.30 μmol/L with Aβ1-42 11.07 μmol/L, 37° C., 12 h to 7 d; for dose dependence of effect on Aβ fibril formation / most effective concentration for inhibition of Aβ fibril formation: 10-100 μmol/L with Aβ1-42 11.07 μmol/L; for dose dependence of effect on Aβ fibril formation / effect on Aβ1-42 aggregation and fibril formation (ThT, FIG. 2) / most effective concentration for inhibition of Aβ fibril formation / Inhibition (%) of Aβ aggregation: 37° C. for 24 h; for effect on Aβ1-42 aggregation and fibril formation (ThT, FIG. 2) / Inhibition (%) of Aβ aggregation: Aβ1-42 11.07 μmol/L, test substance 44.30 μmol/L; for most effective concentration for inhibition of Aβ fibril formation: dose-effect; for Inhibition (%) of Aβ aggregation: Aβ1-42 alone = 100% fluorescence. How it is done:
2. […] Each solution was incubated at 37° C. for 24 h, and 10 μl was taken out from each group and added into 990 μl of 3.0 μmol/L ThT phosphate buffer. ThT fluorescence intensity was measured at the excitation wavelength of 453 nm and emission wavelength of 478˜486 nm.
3. The dose-effect and time-effect relationships of the polypeptides of the invention on Aβ1-42: polypeptide H102 was formulated in PBS (as described above) to obtain a series of concentrations, and Aβ1-42 was added into the solutions to the concentration of 11.07 μmol/L. The resulted solutions were incubated at 37° C. for 24 hours, and samples were taken and measured for ThT fluorescence intensity, in order to determine the dose-effect relationship of the polypeptides of the invention on Aβ1-42. Solutions containing H102 of 44.30 μmol/L and Aβ1-42 of 11.07 μmol/L, or Vitamin E of 44.30 μmol/L and Aβ1-42 of 11.07 μmol/L, respectively, were incubated at 37° C. Samples were taken and measured for ThT fluorescence intensity at the time points of 12 hours (12 h), 1 day (1 d), 3 days (3 d), 5 days (5 d) and 7 days (7 d) after the incubation, in order to determine the time-effect relationships of various polypeptides on Aβ1-42.

Data set [2] relates to human neuroblastoma SH-SY5Y cells. As to the kind of experiment: Cytotoxicity test (MTT): viability of SH-SY5Y cells incubated with Aβ1-42. Type of data set: cell-based. The note with it: 72 hours. How it is done: 5. Cytotoxicity test: a commonly-used cell line, human neuroblastoma SH-SY5Y, was used in the assay of cytotoxcity, which was purchased from Xuanwu Hospital of Capital Medical University and cultured in MEM medium (supplemented with 10% (v/v) fetal bovine serum) by conventional methods, in a 37° C., 5% CO2 incubator. The cell line was subcultured once every 5 days. When the SH-SY5Y cells grew stably in the logarithmic phase, the cells were inoculated into a 96 well plates (Costar) in a density of 1.0×10^4/ml, with 200 μl of medium added per well. After 24 hours, the medium was replaced by serum-free medium, and Aβ1-42 was added to the concentration of 5 μmol/L. The wells were divided into several groups. […] At 72 hours after the addition of the polypeptides, 20 μl of 3-(4,5-dimethyl-2-thiazolyl)-2,5-diphenyltetrazole bromide (MTT) (5 mg/ml) was added into each well, and the plate was incubated at 37° C. for 4 hours. Then the original culture medium was discarded, and 200 μl of DMSO was added into each well. The plate was left to stand for 10 min and then shaken for 1 min, allowing the Formazane particles to be completely dissolved. Then the optical density (OD) at 492 nm was measured on an automatic microplate reader.

Data set [3] concerns APP 695 transgenic mice. Description: Immunohistochemical staining of hippocampal CA1 neurons (anti-APP N-terminal and anti-Aβ antibody) in APP 695 transgenic mice. The settings on record: intracerebroventricular 3 μl of 40 μmol/L daily for 10 days. It is filed as in vivo. The source says:
(§1) Experimental animals: thirty APP 695 transgenic mice of nine-month-old and ten C57BL/6J mice which are matched in genetic background and age, were all purchased from the experimental animal research center of Peking Union Medical College, Chinese Academy of Medical Sciences.
(§2) Animal grouping and model preparation: the thirty APP 695 transgenic mice were randomly divided into model group of 15 mice and the polypeptide-injected group of 15 mice. Ten C57BL/6J mice were used as a normal control group. For the polypeptide-injected group, the animals were received intracerebroventricular injection of 3 μl of saline solution containing H102 of 40 μmol/L each time. For the control group and model group, the animals were received intracerebroventricular injection of 3 μl of normal saline solution each time. The injection was carried out daily for 10 days. All animals were kept in the same conditions in SPF-grade mice room in the experimental animal research center of Tianjin Medical University
(§3) The animals were anaesthetized intraperitoneally by 10% chloral hydrate at a dose of 400 mg/Kg weight. The animals were fixed on a brain stereotaxic frame, and the hair was cut off. After disinfection with Anerdian, the skin was incised along the midline of the head for about 1 cm. The periosteum was stripped to expose the bone marks. […]

For data set [4], the system named is APP 695 transgenic mice. As to the kind of experiment: Congo Red staining of amyloid plaques in temporal cortex and hippocampus of APP 695 transgenic mice. The note with it: intracerebroventricular 3 μl of 40 μmol/L daily for 10 days. Type of data set: in vivo.
Source text: as §1, §2, §3

The target in data set [5] is T1, Aβ1-42 peptide. As to the kind of experiment: Electron microscopy of Aβ1-42 fibril formation. The note with it: peptide 44.30 μmol/L with Aβ1-42 11.07 μmol/L, 37° C., 5 days; for length of formed Aβ fibrils: Aβ alone about 0.5 to 5 μm; for diameter of formed Aβ fibrils: Aβ alone about 8 to 10 nm. Set-up: Reagents: Aβ1-42 (purity >98%); purchased Sigma-Aldrich, Inc. It is filed as biochemical. The protocol:
4. […] Samples of 5 μl were taken from each group, dropped onto a 300-mesh deionized copper mesh with carbon support film, and left to stand at room temperature for 15 min. The samples were negatively stained in dark by 2% uranyl acetate for 2 min. After drying, the samples were observed under a transmission electron microscope.

As for HKQLPFFEED [H102], in data set [1], the “T1/2, time point at which the fluorescence intensity reaches the half-peak” value was “fourth day”; the “ThT fluorescence intensity over time vs Aβ1-42 alone” value is “significantly weaker at each time point”; the “dose dependence of effect on Aβ fibril formation” value is recorded as “dose-dependent”; the “effect on Aβ1-42 aggregation and fibril formation (ThT, FIG. 2)” value was “remarkably inhibit”. Besides, the “most effective concentration for inhibition of Aβ fibril formation” value in data set [1] was “about 20 μmol/L”. The “effect on viability of SH-SY5Y cells” value in data set [2] (10, 20 and 40 μmol/L with Aβ1-42 5 μmol/L) was “most effective to improve the viability of cells”. Moreover, the “optimal concentration to improve the viability of cells” value in data set [2] (Aβ1-42 5 μmol/L) stood at 20 µmol/L. In addition, the “amount of Aβ1-42 positive cells in brain CA1 area vs model group” value in data set [3] is reported as “much lower than that of the model group”. In data set [4], the “amyloid plaques (Congo red) vs transgenic model group” value is “much lower in the number and size”. For the same substance, in data set [5], the “length of formed Aβ fibrils” value is reported as 0.3 to 3 μm and the “diameter of formed Aβ fibrils” value fell in the range of 3 to 6 nm.

On to “Leu-Pro-Phe-Phe-Asp (LPFFD; printed: Leu-Pro-Phe-Phe-Asp) [L5, reference compound]”, for which the “Inhibition (%) of Aβ aggregation” value in data set [1] is 25.74%. For the same substance, in data set [5], the “length of formed Aβ fibrils” value is 0.3 to 5 μm and the “diameter of formed Aβ fibrils” value lay within 4 to 8 nm.

Take Vitamin E: in data set [1], the “T1/2, time point at which the fluorescence intensity reaches the half-peak” value is listed as “fourth day”; the “ThT fluorescence intensity over time vs Aβ1-42 alone” value is reported as “significantly weaker at each time point”; the “dose dependence of effect on Aβ fibril formation” value is reported as “dose-dependent”; the “effect on Aβ1-42 aggregation and fibril formation (ThT, FIG. 2)” value is “remarkably inhibit”. Also, in data set [1], the “Inhibition (%) of Aβ aggregation” value was 24.85% and the “most effective concentration for inhibition of Aβ fibril formation” value was “about 20 μmol/L”.
